Data reported in US10215752.

Biological target: His-tag GafD lectin (Escherichia coli) (UniProt Q47341)
Assay: concentration dependent nIR fluorescence loading curves, ks against concentration, GafD on Ni-NTA SWNT/chitosan sensor

His-tag GafD lectin (Escherichia coli), sequence (Q47341 23-200 limits assumed): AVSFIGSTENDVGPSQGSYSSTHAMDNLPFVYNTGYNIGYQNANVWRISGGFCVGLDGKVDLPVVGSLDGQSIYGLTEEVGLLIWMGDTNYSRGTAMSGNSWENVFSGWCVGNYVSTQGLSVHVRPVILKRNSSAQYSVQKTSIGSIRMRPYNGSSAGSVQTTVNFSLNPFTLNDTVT

For “murine produced anti His-tag antibody (Sigma H1029)”, the Kd was 4 µM and the koff was 0.0082 s⁻¹.
